Results published in patent US20240117334.
Residue numbers refer to the chain shown, from its start. Numbers in names are those of the source.

B1: MTSP-1 F97E/K224N/F99L/D217I/C122S/C[17]S/C[19]S (protein)
chain: VVGGTDADEGEWPWQVSLHALGQGHICGASLISPNWLVSAAHCYIDDRGFRYSDPTQWTAFLGLHDQSQRSAPGVQERRLKRIISHPFFNDETLDYDIALLELEKPAEYSSMVRPISLPDASHVFPAGKAIWVTGWGHTQYGGTGALILQKGEIRVINQTTCENLLPQQITPRMMCVGFLSGGVDSCQGDSGGPLSSVEADGRIFQAGVVSWGIGCAQRNNPGVYTRLPLFRDWIKENTGV
B2: chymase C22S/K40L/F41K/L99N/F173Y/D175N/S218L/A226R (protein)
chain: IIGGTESKPHSRPYMAYLEIVTSNGPSLKCGGFLIRRNFVLTAAHCAGRSITVTLGAHNITEEEDTWQKLEVIKQFRHPKYNTSTNHHDIMLLKLKEKASLTLAVGTLPFPSQFNFVPPGRMCRVAGWGRTGVLKPGSDTLQEVKLRLMDPQACSHYRNFDHNLQLCVGNPRKTKSAFKGDSGGPLLCAGVAQGIVSYGRLDAKPPRVFTRISHYRPWINQILQAN
B3: chymase C22S/P38Q/K40M/F41R/V138I/F173Y/D175R/A190S/V213A/S218V/A226R (protein)
chain: B2 chain with P26Q, L28M, K29R, N86L, V125I, N159R, A177S, V196A, L201V
B4: chymase C22S/P38Q/K40L/F41R/V138I/F173Y/D175N/A190S/V213A/S218V/A226R (protein)
chain: B2 chain with P26Q, K29R, N86L, V125I, A177S, V196A, L201V
B5: chymase C22S/P38Q/K40M/F41R/L99M/F173Y/D175N/V213Q/S218V/A226R/F228A (protein)
chain: B2 chain with P26Q, L28M, K29R, N86M, V196Q, L201V, F209A
B6: chymase C22S/P38Q/K40M/F41R/D175N/V213Q/S218V/A226R/F228A (protein)
chain: B2 chain with P26Q, L28M, K29R, N86L, Y157F, V196Q, L201V, F209A
B7: chymase C22S/P38Q/K40L/F41R/L99H/V138I/F173Y/D175S/A190S/V213A/S218I/A226R (protein)
chain: B2 chain with P26Q, K29R, N86H, V125I, N159S, A177S, V196A, L201I

Molecular target: Human Factor B
Sequence (chain, as listed by the source): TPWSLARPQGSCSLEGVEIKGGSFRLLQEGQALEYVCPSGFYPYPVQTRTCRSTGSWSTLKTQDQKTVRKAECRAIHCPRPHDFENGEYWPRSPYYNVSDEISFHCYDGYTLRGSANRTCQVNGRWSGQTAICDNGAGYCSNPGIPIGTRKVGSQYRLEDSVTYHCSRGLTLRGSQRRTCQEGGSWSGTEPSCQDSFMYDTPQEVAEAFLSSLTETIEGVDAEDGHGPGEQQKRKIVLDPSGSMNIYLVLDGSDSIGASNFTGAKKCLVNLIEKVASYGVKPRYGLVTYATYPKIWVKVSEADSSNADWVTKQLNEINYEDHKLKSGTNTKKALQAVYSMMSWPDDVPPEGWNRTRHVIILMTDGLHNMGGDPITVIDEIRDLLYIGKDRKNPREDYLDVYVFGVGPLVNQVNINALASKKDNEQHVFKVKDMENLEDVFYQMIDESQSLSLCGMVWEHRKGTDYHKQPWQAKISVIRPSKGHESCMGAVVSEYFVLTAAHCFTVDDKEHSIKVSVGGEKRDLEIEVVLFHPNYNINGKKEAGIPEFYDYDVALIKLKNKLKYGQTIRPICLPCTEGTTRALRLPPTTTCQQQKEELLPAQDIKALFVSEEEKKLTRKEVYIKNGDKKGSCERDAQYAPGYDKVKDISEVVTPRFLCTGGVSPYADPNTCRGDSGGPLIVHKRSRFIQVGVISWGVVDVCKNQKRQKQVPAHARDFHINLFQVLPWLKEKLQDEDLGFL

Protein | Factor B cleavage, Coomassie gel | other results
B1 | – | Factor B add-back hemolysis: is able to inhibit hemolysis
B2 | each lot showed the ability of the engineered proteases to cleave Factor B | –
B3 | – | Factor B cleavage: show high Factor B cleavage activity
B4 | – | Factor B cleavage: show high Factor B cleavage activity
B5 | each lot showed the ability of the engineered proteases to cleave Factor B | –
B6 | each lot showed the ability of the engineered proteases to cleave Factor B | –
B7 | each lot showed the ability of the engineered proteases to cleave Factor B | –
